Measurements: publication PMC9703647 (Nature, 2022)

Molecular target: the molecule itself
Experiment: cross-linking

B1: GSDMA_(1–246) (domain or fragment, human, UniProt Q96QA5 1-246, looked up)
chain: MTMFENVTRALARQLNPRGDLTPLDSLIDFKRFHPFCLVLRKRKSTLFWGARYVRTDYTLLDVLEPGSSPSDPTDTGNFGFKNMLDTRVEGDVDVPKTVKVKGTAGLSQNSTLEVQTLSVAPKALETVQERKLAADHPFLKEMQDQGENLYVVMEVVETVQEVTLERAGKAEACFSLPFFAPLGLQGSINHKEAVTIPKGCVLAFRVRQLMVKGKDEWDIPHICNDNMQTFPPGEKSGEEKVILIQ
B1: binds.
